According to article PMC11467371, “Structure‐based design of antibodies targeting the EBNA1 DNA‐binding domain to block Epstein–Barr virus latent infection and tumor growth”:

B1: DNA01 (dsDNA)
DNA 1: GGGTAGCATATGCTACCC
DNA 2: GGGTAGCATATGCTACCC
B2: DNA02 (dsDNA)
DNA 1: GGGTAACCACTGTTACCC
DNA 2: GGGTAACAGTGGTTACCC

Molecular target: EBNA1 DBD (Epstein-Barr virus (strain B95.8), UniProt P03211 461-607)
Test: fluorescence polarization; EC50; 1 mM MgCl2; FP: 200 mM NaCl, 20 mM Tris-HCl pH 7.5, 1 mM MgCl2, 0.01% CHAPS; 20 nM FAM probe stock mixed 1:1 with 0.31-20 µM protein, 20 min; temperature not stated
Settings: protein: recombinant, tags: N-terminal 6xHis-SUMO, removed by ULP1, chain copies: 2, label: 5'-FAM, called 18-bp

EBNA1 DBD, sequence (P03211 461-607): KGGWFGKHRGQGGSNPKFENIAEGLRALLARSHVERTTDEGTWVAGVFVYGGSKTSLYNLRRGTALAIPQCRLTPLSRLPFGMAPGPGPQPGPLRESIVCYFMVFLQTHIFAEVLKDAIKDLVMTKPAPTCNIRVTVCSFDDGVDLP

Binder	apparent K (half saturation) (blunt, one self-complementary strand printed, 2 copies)	apparent K (half saturation) (only the FAM strand is printed, complement implied)
B1	2130 nM	
B2		1540 nM
